CTLL Inhibition Assay units/ml (Antagonist Activity) and concentration of antagonist required to neutralize 40 pg/ml IL-15 in CTLL inhibition assay data for nine substances are collected here from patent publication US20040253587A1.

Values joined by “and” are separate entries in the source; they are usually repeats but may differ in a detail not shown here. Equal values may be shown once.

In the assay the target is IL-15 receptor complex on CTLL-2 cells. As to the kind of experiment: cell-based or functional assay.
For “IL-15 (from UniProt P40933 49-162) (ligand)”, the CTLL Inhibition Assay units/ml (Antagonist Activity) was determined as 279 units/ml.

“IL-15-D56C (from UniProt P40933 49-162) (ligand)”: the CTLL Inhibition Assay units/ml (Antagonist Activity) is 2e+06 units/ml and 5e+06 units/ml.

Substance “IL-15-D56C-Q156C (from UniProt P40933 49-162) (ligand)” showed a CTLL Inhibition Assay units/ml (Antagonist Activity) of 200000 units/ml.

Take “IL-15-D56C-Q156S (from UniProt P40933 49-162) (ligand)”: the CTLL Inhibition Assay units/ml (Antagonist Activity) came to 700000 units/ml.

“IL-15-D56S (from UniProt P40933 49-162) (ligand)” had a CTLL Inhibition Assay units/ml (Antagonist Activity) of 220000 units/ml.

Turning to “IL-15-D56S-Q156S (from UniProt P40933 49-162) (ligand)”, the CTLL Inhibition Assay units/ml (Antagonist Activity) came out at 720000 units/ml.

The substance “IL-15-Q156C (from UniProt P40933 49-162) (ligand)” returned a CTLL Inhibition Assay units/ml (Antagonist Activity) of 3e+06 units/ml.

For the substance “IL-15-Q156S (from UniProt P40933 49-162) (ligand)”, the CTLL Inhibition Assay units/ml (Antagonist Activity) is 1.5e+06 units/ml.

“PEG-IL-15-D56C (from UniProt P40933 49-162) (ligand)” displayed a CTLL Inhibition Assay units/ml (Antagonist Activity) of 7.96e+06 units/ml and a concentration of antagonist required to neutralize 40 pg/ml IL-15 in CTLL inhibition assay of 7.7 ng/mL.
